Columns and labels:
[1] = tested on: E. coli M ccB; test: LC-TOF MS analysis of MccB-catalyzed AMPylation of MccA variants; assay type: biochemical; details: positional scanning library, 16 h
Experimental: LC-TOF MS analysis of M ccB reactions with synthetic peptide substrates. […] Reactions were incubated for 16 hours at room temperature and quenched with addition of an equivalent volume of 0.6% TFA. These reaction conditions were used for M ccBs from E. coli, H. pylori, L. johnsonii, and H. somni.
LC-TOF MS analysis of M ccB-catalyzed N-AM Pylation of M ccA positional scanning peptide library. MccA variants were synthesized individually in-house (according to Solid-phase peptide synthesis) or were purchased from Peptide2.0. […] Reactions were incubated for 16 hours at room temperature and quenched with addition of an equivalent volume of 0.6% TFA. […] Percent conversion was calculated using peak areas from substrate and product EICs. Raw data are available in the Dryad repository at DOI: 10.5061/dryad.c59zw3rkb.

[2] = tested on: M ccB; test: MccB-catalyzed C-terminal thioesterification / Cys ligation of TeCH-tag fusion proteins (intact protein LC-MS); assay type: biochemical, E. coli; details: ATP (5 mM), Mesna (5 mM)
Experimental: M ccB-mediated ligation of GFP-MccA-N7G protein substrates. GFP-M ccA-N7G variant (50 μM) was incubated with 5 μM MccB, 5 mM ATP, and the appropriate concentration of cysteine or Mesna/TCEP in reaction buffer (25 mM Tris pH 8.0, 10 mM M gCl2). Reactions were incubated at room temperature for the indicated times. For labeling time course experiments, reactions were quenched with the addition of an equivalent volume of 0.6% TFA.

Molecule: MRTGNAN (listed as Escherichia coli) [wild-type M ccA, reference compound]
- formation of C-terminally N-AMPylated phosphoramidate product [1]: fully converted

B1: PTP 1B 1-321: catalytic domain of protein tyrosine phosphatase 1B with TeCH-tag (SEQ ID NO: 76) (protein)
chain: MGHHHHHHDYDIPTTENLYFQGSMEMEKEFEQIDKSGSWAAIYQDIRHEASDFPCRVAKLPKNKNRNRYRDVSPFDHSRIKLHQEDNDYINASLIKMEEAQRSYILTQGPLPNTCGHFWEMVWEQKSRGVVMLNRVMEKGSLKCAQYWPQKEEKEMIFEDTNLKLTLISEDIKSYYTVRQLELENLTTQETREILHFHYTTWPDFGVPESPASFLNFLFKVRESGSLSPEHGPVVVHCSAGIGRSGTFCLADTCLLLMDKRKDPSSVDIKKVLLEMRKFRMGLIQTADQLRFSYLAVIEGAKFIMGDSSVQDQWKELSHEDLEPPPEHIPPPPRPPKRILEPHNGGGGMRTGNAG
modifications: TeCH-tag; N-terminal His tag and TEV protease cleavage site sequence; Linker and MccB recognition sequence
- time to complete conversion to thioester [2]: 1 h

B2: protein L: protein L with C-terminal TeCH-tag (SEQ ID NO: 75) (protein)
chain: MHHHHHHKEETPETPETDSEEEVTIKANLIFANGSTQTAEFKGTFEKATSEAYAYADTLKKDNGEYTVDVADKGYTLNIKFAGKEKTPEEPKEEVTIKANLIYADGKTQTAEFKGTFEEATAEAYRYADALKKDNGEYTVDVADKGYTLNIKFAGKEKTPEEPKEEVTIKANLIYADGKTQTAEFKGTFEEATAEAYRYADLLAKENGKYTVDVADKGYTLNIKFAGKEKTPEEPKEEVTIKANLIYADGKTQTAEFKGTFAEATAEAYRYADLLAKENGKYTADLEDGGYTINIRFAGKKVDEKPEEKEQVTIKENIYFEDGTVQTATFKGTFAEATAEAYRYADLLSKEHGKYTADLEDGGYTINIRFAGGGGSGGGSMRTGNAG
modifications: C-terminal TeCH-tag; Linker and MccB recognition sequence
- time to complete conversion to thioester [2]: 16 h

B3: a-GFP rAb (protein)
light: SDIQMTQSPSSLSASVGDRVTITCRASQSVSSAVAWYQQKPGKAPKLLIYSASSLYSGVPSRFSGSRSGTDFTLTISSLQPEDFATYYCQQSWGLITFGQGTKVEIKRTVAAPSVFIFPPSDSQLKSGTASVVCLLNNFYPREAKVQWKVDNALQSGNSQESVTEQDSKDSTYSLSSTLTLSKADYEKHKVYACEVTHQGLSSPVTKSFNRGEC
heavy: EISEVQLVESGGGLVQPGGSLRLSCAASGFNISYYSIHWVRQAPGKGLEWVASIYPYYSSTSYADSVKGRFTISADTSKNTAYLQMNSLRAEDTAVYYCARAGWVASSGMDYWGQGTLVTVSSASTKGPSVFPLAPSSKSTSGGTAALGCLVKDYFPEPVTVSWNSGALTSGVHTFPAVLQSSGLYSLSSVVTVPSSSLGTQTYICNVNHKPSNTKVDKKVEPKSCGGGGGMRTGNAGAFAGAGSK
modifications: non-natural residues; cyclised or stapled
- time to complete conversion to thioester [2]: 16 h

Reference: patent US20250346938A1, “ATP-DEPENDENT C-TERMINAL MODIFICATION OF POLYPEPTIDES” (Wisconsin Alumni Research Foundation, priority 2024, published 2025)
